T1: cynomolgus monkey FcγRIIa1 extracellular domain, His-tagged (cynomolgus monkey)
T1 construct: also called cyno FcγRIIa1; FcgRIIa1; not shown: C-terminal His-tag
T1 chain: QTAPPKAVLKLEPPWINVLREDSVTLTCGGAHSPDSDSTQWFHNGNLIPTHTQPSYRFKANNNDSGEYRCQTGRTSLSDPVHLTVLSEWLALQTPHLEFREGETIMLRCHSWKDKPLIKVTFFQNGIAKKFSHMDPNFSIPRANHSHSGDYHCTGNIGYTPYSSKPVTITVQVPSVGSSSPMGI

T2: cynomolgus monkey FcγRIIa2 extracellular domain, His-tagged (cynomolgus monkey)
T2 construct: also called cyno FcγRIIa2; FcgRIIa2; not shown: C-terminal His-tag
T2 chain: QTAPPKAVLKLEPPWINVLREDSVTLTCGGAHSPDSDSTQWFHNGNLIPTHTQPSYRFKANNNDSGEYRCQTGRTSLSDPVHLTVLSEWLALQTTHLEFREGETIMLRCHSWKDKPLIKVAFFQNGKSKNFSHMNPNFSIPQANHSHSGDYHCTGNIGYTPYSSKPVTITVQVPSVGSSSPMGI

T3: cynomolgus monkey FcγRIIa3 extracellular domain, His-tagged (cynomolgus monkey)
T3 construct: also called cyno FcγRIIa3; FcgRIIa3; not shown: C-terminal His-tag
T3 chain: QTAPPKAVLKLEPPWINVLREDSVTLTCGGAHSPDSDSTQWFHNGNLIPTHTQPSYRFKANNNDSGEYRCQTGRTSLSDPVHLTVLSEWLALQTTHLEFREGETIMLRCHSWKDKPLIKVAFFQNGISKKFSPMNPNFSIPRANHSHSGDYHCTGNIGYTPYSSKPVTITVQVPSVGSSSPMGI

T4: cynomolgus monkey FcγRIIb extracellular domain, His-tagged (cynomolgus monkey)
T4 construct: also called cyno FcγRIIb; cynoFcγRIIb; not shown: C-terminal His-tag
T4 chain: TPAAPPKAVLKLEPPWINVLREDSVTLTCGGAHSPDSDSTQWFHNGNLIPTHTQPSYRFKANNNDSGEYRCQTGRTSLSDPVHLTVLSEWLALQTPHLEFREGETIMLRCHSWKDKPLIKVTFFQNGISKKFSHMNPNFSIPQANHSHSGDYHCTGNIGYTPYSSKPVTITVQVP

T5: cynomolgus monkey FcγRIIIaS extracellular domain, His-tagged (cynomolgus monkey, UniProt Q8SPW2 21-206 at identity 1.00))
T5 construct: also called cyno FcγRIIIaS; FcgRIIIaS; not shown: C-terminal His-tag
T5 chain: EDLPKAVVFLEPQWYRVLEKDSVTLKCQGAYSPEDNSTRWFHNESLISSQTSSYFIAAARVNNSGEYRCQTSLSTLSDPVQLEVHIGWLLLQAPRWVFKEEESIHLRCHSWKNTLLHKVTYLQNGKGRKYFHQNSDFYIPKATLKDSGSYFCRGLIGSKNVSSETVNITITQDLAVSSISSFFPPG

T6: human FcγRIIaH extracellular domain, His-tagged (human, UniProt P12318 34-217)
T6 construct: also called human FcγRIIa (type H); FcgRIIaH; not shown: C-terminal His-tag
T6 sequence: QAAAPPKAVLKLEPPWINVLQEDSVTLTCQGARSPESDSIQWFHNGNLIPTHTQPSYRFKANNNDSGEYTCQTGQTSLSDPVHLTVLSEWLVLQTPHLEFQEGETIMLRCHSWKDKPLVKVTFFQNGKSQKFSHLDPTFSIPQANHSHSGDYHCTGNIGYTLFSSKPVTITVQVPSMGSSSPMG

T7: human FcγRIIaR extracellular domain, His-tagged (human, UniProt P12318 34-217)
T7 construct: also called human FcγRIIa (type R); FcgRIIaR; not shown: C-terminal His-tag
T7 chain: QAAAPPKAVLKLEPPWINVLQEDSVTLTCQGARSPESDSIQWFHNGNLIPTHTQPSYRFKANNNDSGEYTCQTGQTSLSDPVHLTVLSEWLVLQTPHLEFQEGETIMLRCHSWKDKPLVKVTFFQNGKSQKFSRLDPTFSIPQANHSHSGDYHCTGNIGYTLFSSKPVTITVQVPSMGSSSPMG

T8: human FcγRIIb extracellular domain, His-tagged (human, UniProt P31994 43-217)
T8 construct: also called FcgRIIb (human); not shown: C-terminal His-tag
T8 sequence: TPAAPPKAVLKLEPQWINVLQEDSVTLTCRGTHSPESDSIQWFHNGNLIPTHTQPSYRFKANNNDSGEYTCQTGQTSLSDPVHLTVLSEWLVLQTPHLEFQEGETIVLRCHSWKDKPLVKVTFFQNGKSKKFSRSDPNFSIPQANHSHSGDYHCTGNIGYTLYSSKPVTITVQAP

T9: Human latent myostatin (human, UniProt O14793 25-266; O14793 267-375)
T9 construct: Biotinylated in the ELISAs; also called human myostatin latent form
T9 sequence 1: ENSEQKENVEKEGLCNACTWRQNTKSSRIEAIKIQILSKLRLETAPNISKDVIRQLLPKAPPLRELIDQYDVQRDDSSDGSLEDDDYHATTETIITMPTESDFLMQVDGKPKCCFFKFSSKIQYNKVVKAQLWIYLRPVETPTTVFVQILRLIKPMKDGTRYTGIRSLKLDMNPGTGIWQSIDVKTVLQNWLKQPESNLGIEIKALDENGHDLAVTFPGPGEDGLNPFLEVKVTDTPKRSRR
T9 sequence 2: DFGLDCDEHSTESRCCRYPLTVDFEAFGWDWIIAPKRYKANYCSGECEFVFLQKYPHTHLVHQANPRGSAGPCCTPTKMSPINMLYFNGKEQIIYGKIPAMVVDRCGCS


How the values were obtained:
[1] = biological target: T1, cynomolgus monkey FcγRIIa1 …; assay: SPR (BIACORE), 25 C, antibody captured, FcgR as analyte; KD of SG1 divided by KD of variant;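 also: relative to parent M103205H795-SG1 carrying the SG1 human heavy chain constant region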
Protocol: (§1) The kinetic analysis of interactions between these antibodies and FcγR was carried out using BIACORE® T200 or BIACORE® 4000 (GE Healthcare). HBS-EP+ (GE Healthcare) was used as the running buffer, and the measurement temperature was set to 25° C. A chip produced by immobilizing Protein A. Protein A/G or mouse anti-human IgG kappa light chain (BD Biosciences) onto a Series S Sensor Chip CM4 or CM5 (GE Healthcare) by the amine-coupling method was used. […] After the measurement, the antibody captured on the chip was washed off by allowing reaction with 10 mM glycine-HCl, pH1.5 and 25 mM NaOH so that the chip was regenerated and used repeatedly. The sensorgrams obtained as measurement results were analyzed by the 1:1 Langmuir binding model using the BIACORE® Evaluation Software to calculate the binding rate constant ka (L/mol/s) and dissociation rate constant kd (l/s), and the dissociation constant KD (mol/L) was calculated from these values. […] Regarding such interactions, KD values were calculated using the following 1:1 binding model described in BIACORE® T100 Software Handbook BR1006-48 Edition AE.

[2] = biological target: T2, cynomolgus monkey FcγRIIa2 …; assay: as above
Protocol: as §1

[3] = biological target: T3, cynomolgus monkey FcγRIIa3 …; assay: as above
Protocol: as §1

[4] = biological target: T4, cynomolgus monkey FcγRIIb extracellular …; assay: as above
Protocol: as §1

[5] = biological target: T5, cynomolgus monkey FcγRIIIaS …; assay: as above
Protocol: as §1

[6] = biological target: T6, human FcγRIIaH extracellular domain, …; assay: as above
Protocol: as §1

[7] = biological target: T7, human FcγRIIaR extracellular domain, …; assay: as above
Protocol: as §1

[8] = biological target: T8, human FcγRIIb extracellular domain, …; assay: as above
Protocol: as §1

[9] = biological target: T10, human FcγRIIIaV extracellular domain, His-tagged (human, UniProt P08637 17-208); assay: as above
T10 construct: also called human FcγRIIIa (V158); FcgRIIIaV; not shown: C-terminal His-tag
Protocol: as §1

[10] = biological target: T9, Human latent myostatin; assay: SPR (BIACORE T200), 37 C, pH7.4, avidity condition (capture 185 RU), 1:1 fit; pH 7.4
Protocol: (§2) The kinetic parameters of anti-latent myostatin antibodies against human, cynomolgus monkey (cyno), and mouse latent myostatin were assessed at 37° C. at pH7.4 using a BIACORE® T200 instrument (GE Healthcare). ProA/G (Pierce) was immobilized onto all flow cells of a CM4 chip using amine coupling kit (GE Healthcare). Anti-latent myostatin antibody and analytes were prepared in ACES pH7.4 (20 mM ACES, 150 mM NaCl, 1.2 mM CaCl₂), 0.05% TWEEN® 20, 0.005% NaN₃). […] Then human, cyno, or mouse latent myostatin was injected at 3.125 to 50 nM prepared by two-fold serial dilution, followed by dissociation. The sensor surface was regenerated with 25 mM NaOH. Kinetic parameters were determined by processing and fitting the data to a 1:1 binding model using BIACORE® T200 Evaluation software, version 2.0 (GE Healthcare).
(§3) All experimental settings were the same as in Example 7, except that measurements were also performed in ACES pH5.8 buffer in addition to ACES pH7.4 condition. Some antibodies were only measured against human latent myostatin. Antibody capture level was aimed at 185 RU and 18.5 RU, for avidity and affinity assay, respectively. Kinetic parameters were determined using 1:1 Binding fitting using BIACORE® T200 Evaluation software, version 2.0 (GE Healthcare).

[11] = biological target: T9, Human latent myostatin; assay: SPR (BIACORE T200), 37 C, pH5.8, avidity condition (capture 185 RU), 1:1 fit; pH 5.8
Protocol: as §2, §3

[12] = biological target: T9, Human latent myostatin; assay: SPR (BIACORE T200), 37 C, pH7.4, 1:1 fit; title prints avidity, by the text the affinity condition (capture 18.5 RU)
Protocol: as §2, §3

T10 sequence (P08637 17-208 F176V): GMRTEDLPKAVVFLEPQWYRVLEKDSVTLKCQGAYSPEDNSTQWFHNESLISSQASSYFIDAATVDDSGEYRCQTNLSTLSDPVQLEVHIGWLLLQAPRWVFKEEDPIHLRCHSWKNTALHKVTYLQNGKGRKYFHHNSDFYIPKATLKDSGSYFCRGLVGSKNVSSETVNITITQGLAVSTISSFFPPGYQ

KD fold (SG1 = 1) [1]	KD fold (SG1 = 1) [2]	KD fold (SG1 = 1) [3]	KD fold (SG1 = 1) [4]	KD fold (SG1 = 1) [5]	KD fold (SG1 = 1) [6]	KD fold (SG1 = 1) [7]	KD fold (SG1 = 1) [8]	KD fold (SG1 = 1) [9]	Kd [10]	koff [10]	kon [10]	Kd [11]	koff [11]	kon [11]	Kd [12]	koff [12]	kon [12]	Binder
1.8 fold	3.2 fold	5.7 fold	4.2 fold	0.3 fold	4.3 fold	6.5 fold	4.6 fold	0.2 fold										M103205H795-MY458 / M103202L889-SK1 (antibody, human IgG1, kappa, substitution positions are EU numbers) heavy: QVTLKESGPVLVKPTETLTLTCTVSGIDLSHDDISWVRQAPGKGLEWVGIISYAGSTYYASWAKGRLTISKDTSKNQVVLTMTNMDPVDTATYYCARGVPAYSHGGDLWGQGTLVTVSSASTKGPSVFPLAPSSKSTSGGTAALGCLVKDYFPEPVTVSWNSGALTSGVHTFPAVLQSSGLYSLSSVVTVPSSSLGTQTYICNVNHKPSNTKVDKKVEPKSCDKTHTCPPCPAYELLTGPSVFLFPPKPKDTLMISRTPEVTCVVVDVSDEDPEVKFNWYVDGVEVHNAKTKPREEQYNSTYRVVSVLTVLHQDWLNGKEYKCKVSNKALPKPIEKTISKAKGQPREPQVYTLPPSREEMTKNQVSLTCLVKGFYPSDIAVEWESNGQPENNYKTTPPVLDSDGSFFLYSKLTVDKSRWQQGNVFSCSVMHEALHNHYTQKSLSLSP light: DIVMTQSPATLSLSPGERATLSCTSSQSVYHANWLSWFQQKPGQPPKLLIYWASTLAYGVPSRFSGSGSGTDFTLTISSLQPEDAATYYCAGGYGGGRYAFGQGTKVEIKRTVAAPSVFIFPPSDEQLKSGTASVVCLLNNFYPREAKVQWKVDNALQSGNSQESVTEQDSKDSTYSLSSTLTLSKADYEKHKVYACEVTHQGLSSPVTKSFNRGEC
									0.298 nM	0.000249 s⁻¹	836000 M⁻¹ s⁻¹	24.3 nM	0.0414 s⁻¹	1.7e+06 M⁻¹ s⁻¹	1.64 nM	0.00179 s⁻¹	1.09e+06 M⁻¹ s⁻¹	MS_M103205H781-SG1/M103202L719-SK1 (antibody, human IgG1, kappa, V domains shown, also called MS1032LO02-SG1; MSLO-02) VH: QVTLKESGPVLVKPTETLTLTCTVSGIDLSHTDISWVRQAPGKGLEWVGIISYAGSTYYMSWAKGRLTISKDTSKNQVVLTMTNMDPVDTATYYCARGVPAYSHGGDLWGQGTLVTVSS VL: DIVMTQSPATLSLSPGERATLSCQSSQSVYHNNWLSWFQQKPGQPPKLLIYWASTLAFGVPSRFSGSGSGTDFTLTISSLQPEDAATYYCAGGYGGGLYAFGQGTKVEIKR
									0.196 nM	0.000192 s⁻¹	981000 M⁻¹ s⁻¹	9.66 nM	0.00524 s⁻¹	543000 M⁻¹ s⁻¹	1.08 nM	0.00117 s⁻¹	1.08e+06 M⁻¹ s⁻¹	MS_M103205H781-SG1/M103202L813-SK1 (antibody, human IgG1, kappa, V domains shown, also called MS1032LO03-SG1; MSLO-03) VH: QVTLKESGPVLVKPTETLTLTCTVSGIDLSHTDISWVRQAPGKGLEWVGIISYAGSTYYMSWAKGRLTISKDTSKNQVVLTMTNMDPVDTATYYCARGVPAYSHGGDLWGQGTLVTVSS VL: DIVMTQSPATLSLSPGERATLSCQTSQSVYHDNWLSWFQQKPGQPPKLLIYWASTLASGVPSRFSGSGSGTDFTLTISSLQPEDAATYYCAGGYGGGRYAFGQGTKVEIKR

From US20200317768A1 (published 2020)
